From PMC11055865, “Mechanism of DNA unwinding by MCM8-9 in complex with HROB”

How the values were obtained:
HROB-FLAG [1] = biological target: T1, HROB-FLAG (human, UniProt Q8N3J3-4 1-646, T126P); assay: EMSA; 3 mM EDTA; EMSA: 25 mM Tris-acetate pH 7.5, 3 mM EDTA (or 4 mM ATP/ATPgS + 1 mM Mg acetate), 1 mM DTT, 0.1 mg/ml BSA, 1 nM DNA (100 ng for M13), 15 min on ice, gels at 4 C; mass photometry: 25 mM HEPES-NaOH pH 7.5, 2 mM Mg acetate, 1 mM ATP, room temperature; settings: protein: recombinant; tags: C-terminal FLAG; label: 3' 32P-dC (terminal transferase); single strand
T1 sequence: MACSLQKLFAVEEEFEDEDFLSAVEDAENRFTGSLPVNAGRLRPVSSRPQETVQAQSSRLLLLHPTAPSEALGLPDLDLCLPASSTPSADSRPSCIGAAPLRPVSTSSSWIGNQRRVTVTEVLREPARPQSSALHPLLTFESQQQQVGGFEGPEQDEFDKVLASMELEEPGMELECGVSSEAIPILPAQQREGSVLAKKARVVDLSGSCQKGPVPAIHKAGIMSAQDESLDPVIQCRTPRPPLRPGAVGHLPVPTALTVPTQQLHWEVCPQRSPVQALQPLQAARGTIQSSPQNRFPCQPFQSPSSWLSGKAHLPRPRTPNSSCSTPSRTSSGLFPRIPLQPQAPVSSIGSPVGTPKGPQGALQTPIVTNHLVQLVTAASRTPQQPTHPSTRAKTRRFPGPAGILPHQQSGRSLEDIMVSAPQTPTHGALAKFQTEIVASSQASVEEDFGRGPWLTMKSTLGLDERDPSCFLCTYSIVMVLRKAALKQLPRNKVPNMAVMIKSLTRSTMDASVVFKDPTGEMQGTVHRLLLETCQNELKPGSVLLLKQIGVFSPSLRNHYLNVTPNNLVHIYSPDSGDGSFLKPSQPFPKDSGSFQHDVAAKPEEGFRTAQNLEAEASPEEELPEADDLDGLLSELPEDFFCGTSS

HROB-ΔOB = biological target: T2, HROB-ΔOB (human, UniProt Q8N3J3-4 1-490+575-646, T126P;internal_change); assay: EMSA; 3 mM EDTA; comparable to WT HROB; EMSA: 25 mM Tris-acetate pH 7.5, 3 mM EDTA (or 4 mM ATP/ATPgS + 1 mM Mg acetate), 1 mM DTT, 0.1 mg/ml BSA, 1 nM DNA (100 ng for M13), 15 min on ice, gels at 4 C; mass photometry: 25 mM HEPES-NaOH pH 7.5, 2 mM Mg acetate, 1 mM ATP, room temperature; settings: protein: recombinant; tags: FLAG; label: 3' 32P-dC (terminal transferase); single strand
T2 sequence: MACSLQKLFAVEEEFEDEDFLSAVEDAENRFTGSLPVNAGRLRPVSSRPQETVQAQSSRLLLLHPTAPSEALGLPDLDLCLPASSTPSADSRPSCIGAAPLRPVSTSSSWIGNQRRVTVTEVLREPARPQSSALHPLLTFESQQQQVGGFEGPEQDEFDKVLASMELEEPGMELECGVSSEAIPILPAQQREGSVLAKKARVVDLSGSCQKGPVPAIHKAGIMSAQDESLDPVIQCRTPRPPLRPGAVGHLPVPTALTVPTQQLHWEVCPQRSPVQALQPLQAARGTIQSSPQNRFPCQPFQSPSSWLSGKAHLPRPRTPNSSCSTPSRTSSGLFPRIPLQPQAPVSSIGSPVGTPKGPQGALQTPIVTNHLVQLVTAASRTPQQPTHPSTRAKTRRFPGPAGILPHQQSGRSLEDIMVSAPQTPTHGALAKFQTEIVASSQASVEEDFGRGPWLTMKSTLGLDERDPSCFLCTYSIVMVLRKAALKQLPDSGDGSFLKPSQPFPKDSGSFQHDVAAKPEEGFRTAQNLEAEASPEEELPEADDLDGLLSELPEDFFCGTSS

MCM8 R309D;MBP-MCM9 = MCM8 R309D;MBP-MCM9 (human;human, UniProt Q9UJA3;Q9NXL9 1-840;1-1143, R309D|); assay: mass photometry; 1 mM ATP, 2 mM Mg acetate; heterodimer bound plus likely hexamer (Peak 4); EMSA: 25 mM Tris-acetate pH 7.5, 3 mM EDTA (or 4 mM ATP/ATPgS + 1 mM Mg acetate), 1 mM DTT, 0.1 mg/ml BSA, 1 nM DNA (100 ng for M13), 15 min on ice, gels at 4 C; mass photometry: 25 mM HEPES-NaOH pH 7.5, 2 mM Mg acetate, 1 mM ATP, room temperature; settings: protein: recombinant;recombinant; tags: N-terminal FLAG;N-terminal MBP (not cleaved); chain copies: 3;3; single strand
MCM8 R309D;MBP-MCM9, sequence (Q9UJA3 whole entry R309D, chain 1 of 2): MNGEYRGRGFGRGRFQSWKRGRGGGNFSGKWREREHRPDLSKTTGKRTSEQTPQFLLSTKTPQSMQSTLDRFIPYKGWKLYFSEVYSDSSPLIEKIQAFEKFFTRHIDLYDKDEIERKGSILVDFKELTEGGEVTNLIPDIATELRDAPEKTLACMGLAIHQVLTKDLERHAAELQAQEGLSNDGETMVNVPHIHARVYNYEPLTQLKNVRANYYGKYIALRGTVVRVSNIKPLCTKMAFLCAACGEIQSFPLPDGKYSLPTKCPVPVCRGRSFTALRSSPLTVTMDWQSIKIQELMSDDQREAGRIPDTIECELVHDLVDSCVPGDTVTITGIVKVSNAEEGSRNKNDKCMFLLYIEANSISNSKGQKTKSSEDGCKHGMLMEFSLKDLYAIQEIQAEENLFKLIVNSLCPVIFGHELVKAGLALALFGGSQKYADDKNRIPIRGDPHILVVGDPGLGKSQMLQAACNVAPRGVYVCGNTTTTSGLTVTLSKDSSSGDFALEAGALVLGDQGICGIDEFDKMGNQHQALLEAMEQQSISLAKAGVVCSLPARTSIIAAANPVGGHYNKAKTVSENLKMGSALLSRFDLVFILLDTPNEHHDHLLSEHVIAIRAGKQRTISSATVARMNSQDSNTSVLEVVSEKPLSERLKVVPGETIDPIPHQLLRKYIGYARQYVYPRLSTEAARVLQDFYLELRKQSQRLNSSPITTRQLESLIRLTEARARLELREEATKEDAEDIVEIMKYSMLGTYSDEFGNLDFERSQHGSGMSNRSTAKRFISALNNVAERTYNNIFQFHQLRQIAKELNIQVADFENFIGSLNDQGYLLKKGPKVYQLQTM
MCM8 R309D;MBP-MCM9, sequence (Q9NXL9 whole entry, chain 2 of 2): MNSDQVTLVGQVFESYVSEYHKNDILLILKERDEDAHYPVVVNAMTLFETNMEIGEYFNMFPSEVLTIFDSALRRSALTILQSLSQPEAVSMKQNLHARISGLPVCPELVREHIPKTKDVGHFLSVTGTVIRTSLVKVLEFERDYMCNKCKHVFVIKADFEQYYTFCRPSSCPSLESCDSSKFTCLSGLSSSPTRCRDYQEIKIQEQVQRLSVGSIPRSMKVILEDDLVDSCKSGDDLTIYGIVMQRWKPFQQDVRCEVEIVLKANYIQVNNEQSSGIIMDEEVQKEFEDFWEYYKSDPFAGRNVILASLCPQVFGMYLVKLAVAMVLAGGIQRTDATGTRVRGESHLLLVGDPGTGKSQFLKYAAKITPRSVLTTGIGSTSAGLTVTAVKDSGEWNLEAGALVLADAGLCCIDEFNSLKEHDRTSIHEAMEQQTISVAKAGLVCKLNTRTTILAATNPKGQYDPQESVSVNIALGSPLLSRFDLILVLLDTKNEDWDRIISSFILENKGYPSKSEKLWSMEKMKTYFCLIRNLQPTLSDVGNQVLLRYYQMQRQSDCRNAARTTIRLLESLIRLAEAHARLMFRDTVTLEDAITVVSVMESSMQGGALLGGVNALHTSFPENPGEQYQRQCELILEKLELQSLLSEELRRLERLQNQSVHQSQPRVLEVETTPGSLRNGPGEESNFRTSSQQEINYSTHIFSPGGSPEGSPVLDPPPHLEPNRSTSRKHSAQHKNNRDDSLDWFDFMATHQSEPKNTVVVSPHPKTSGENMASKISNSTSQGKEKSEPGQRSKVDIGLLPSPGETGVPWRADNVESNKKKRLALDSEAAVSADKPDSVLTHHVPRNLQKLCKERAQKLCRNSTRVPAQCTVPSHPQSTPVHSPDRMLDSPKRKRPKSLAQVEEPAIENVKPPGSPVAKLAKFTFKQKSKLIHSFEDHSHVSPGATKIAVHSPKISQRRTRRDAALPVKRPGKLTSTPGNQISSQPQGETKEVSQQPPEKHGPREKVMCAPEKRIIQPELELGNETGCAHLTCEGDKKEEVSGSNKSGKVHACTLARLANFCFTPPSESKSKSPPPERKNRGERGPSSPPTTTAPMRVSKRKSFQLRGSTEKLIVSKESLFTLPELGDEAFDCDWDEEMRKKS

HROB-FLAG [2] = biological target: T1, HROB-FLAG; assay: EMSA; 3 mM EDTA; preferred; EMSA: 25 mM Tris-acetate pH 7.5, 3 mM EDTA (or 4 mM ATP/ATPgS + 1 mM Mg acetate), 1 mM DTT, 0.1 mg/ml BSA, 1 nM DNA (100 ng for M13), 15 min on ice, gels at 4 C; mass photometry: 25 mM HEPES-NaOH pH 7.5, 2 mM Mg acetate, 1 mM ATP, room temperature; settings: protein: recombinant, tags: C-terminal FLAG

B1: X12-3 HJ3 (93 nt ssDNA) (ssDNA)
DNA: GAGATCTATCTGGTGCCTTCTGACAGTGAATGGGTAACGAATCGTAATAGTCTCTAGACAGCATGTCCTAGCAATGTAATCGTCTATGACGTC
HROB-FLAG [1]
  binding result: binds
HROB-ΔOB
  binding result: binds

B2: PC216 (70 nt ssDNA) (ssDNA)
DNA: GTAAGTGCCGCGGTGCGGGTGCCAGGGCGTGCCCTTGGGCTCCCCGGGCGCGTACTCCACCTCATGCATC
MCM8 R309D;MBP-MCM9
  binding result: binds

B3: Holliday junction (PC1253/PC1254/PC1255/PC1256) (structured_DNA)
DNA 1: TGGGTCAACGTGGGCAAAGATGTCCTAGCAATGTAATCGTCTATGACGTT
DNA 2: TGCCGAATTCTACCAGTGCCAGTGATGGACATCTTTGCCCACGTTGACCC
DNA 3: GTCGGATCCTCTAGACAGCTCCATGATCACTGGCACTGGTAGAATTCGGC
DNA 4: CAACGTCATAGACGATTACATTGCTACATGGAGCTGTCTAGAGGATCCGA
HROB-FLAG [2]; label: 3' 32P-dC on PC1253, four-way junction 1:2 2:3 3:4 4:1
  binding result: binds

B4: Y-structure (PC1254/PC1253) (structured_DNA)
DNA 1: B3 DNA 2
DNA 2: B3 DNA 1
HROB-FLAG [2]; label: 3' 32P-dC on PC1254, fork 1:2
  binding result: binds
